# Source: patent US20210054094A1 (Hoffmann-La Roche, published 2021)
# Positions count from the first letter of the chain named.
# B1: P1AE5706 (antibody, V domains shown)
# VH: ELQLEQSGGGLVQPGGSLTLSCAASGFTFSKYAMAWVRQAPTKGLEWVASISTGGVNTYYRDSVKARFTISRDNAKNTQYLQMDSLRSEDTATYYCATHTGDYFDYWGQGVMVTVSS
# VL: DIVLTQSPALAVSPGQRATISCRASQSVSISGINLMNWYQQKPGQQPKLLIYHASILASGIPTRFSGSGSGTDFTLTIDPVQADDIATYYCQQTRESPLTFGSGTNLEIK
# B2: P1AE5707 (antibody, V domains shown)
# VH: EVQLLESGGGLVQPGGSLRLSCAASGFTFSKYAMAWVRQAPGKGLEWVASISTGGVNTYYRDSVKARFTISRDNSKNTLYLQMNSLRAEDTAVYYCATHTGDYFDYWGQGTMVTVSS
# VL: DIVMTQSPDSLAVSLGERATINCRASQSVSISGINLMNWYQQKPGQQPKLLIYHASILASGVPDRFSGSGSGTDFTLTISSLQAEDVAVYYCQQTRESPLTFGQGTRLEIK
# B3: P1AE5709 (antibody, V domains shown)
# VH: B2 VH
# VL: EIVLTQSPGTLSLSPGERATLSCRASQSVSISGINLMNWYQQKPGQQPRLLIYHASILASGIPDRFSGSGSGTDFTLTISRLEPEDFAVYYCQQTRESPLTFGQGTRLEIK
# B4: P1AE5712 (antibody, V domains shown)
# VH: B2 VH
# VL: DIQMTQSPSSLSASVGDRVTITCRASQSVSISGINLMNWYQQKPGKQPKLLIYHASILASGVPSRFSGSGSGTDFTLTISSLQPEDFATYYCQQTRESPLTFGQGTRLEIK
# B5: P1AE5729 (antibody, V domains shown)
# VH: B2 VH with V2L, R61A, A66G, S75A
# VL: B3 VL with R49K
# B6: P1AE5721 (antibody, V domains shown)
# VH: B2 VH with R61A, A66G
# VL: B2 VL with R24K, A25S
# B7: P1AE5726 (antibody, V domains shown)
# VH: B2 VH with V2L, R61A, A66G, S75A
# VL: B2 VL
# B8: P1AE5710 (antibody, V domains shown)
# VH: B2 VH
# VL: B3 VL with R49K
# B9: P1AE5727 (antibody, V domains shown)
# VH: B2 VH with V2L, R61A, A66G, S75A
# VL: B2 VL with R24K, A25S
# B10: P1AE5717 (antibody, V domains shown)
# VH: B2 VH with V2L, S75A
# VL: B3 VL with R49K
# B11: P1AE5708 (antibody, V domains shown)
# VH: B2 VH
# VL: B2 VL with R24K, A25S
# B12: P1AE5723 (antibody, V domains shown)
# VH: B2 VH with R61A, A66G
# VL: B3 VL with R49K
# B13: P1AE5722 (antibody, V domains shown)
# VH: B2 VH with R61A, A66G
# VL: B3 VL
# B14: P1AE5728 (antibody, V domains shown)
# VH: B2 VH with V2L, R61A, A66G, S75A
# VL: B3 VL
# B15: P1AE5713 (antibody, V domains shown)
# VH: B2 VH
# VL: B4 VL with K46Q
# B16: P1AE5715 (antibody, V domains shown)
# VH: B2 VH with V2L, S75A
# VL: B2 VL with R24K, A25S
# B17: P1AE5720 (antibody, V domains shown)
# VH: B2 VH with R61A, A66G
# VL: B2 VL
# B18: P1AE5714 (antibody, V domains shown)
# VH: B2 VH with V2L, S75A
# VL: B2 VL
# B19: P1AE5716 (antibody, V domains shown)
# VH: B2 VH with V2L, S75A
# VL: B3 VL
# B20: B72-TCB (bispecific antibody, human IgG1, kappa, L234A L235A)
# heavy 1: not shown
# light 1: EVQLVESGGGLVQPGGSLRLSCAASGFTFNTYAMNWVRQAPGKGLEWVARIRSKYNNYATYYAASVKGRFTISRDDSKNSLYLQMNSLKTEDTAVYYCARHGNFGNSYVSWFAYWGQGTLVTVSSASVAAPSVFIFPPSDEQLKSGTASVVCLLNNFYPREAKVQWKVDNALQSGNSQESVTEQDSKDSTYSLSSTLTLSKADYEKHKVYACEVTHQGLSSPVTKSFNRGEC
# heavy 2: QVQLVQSGAEVKKPGASVKVSCKASGYSFTGYTMNWVRQAPGQGLEWMGLINPYNSDTNYAQKLQGRVTMTTDTSTSTAYMELRSLRSDDTAVYYCARVALRVALDYWGQGTLVTVSSASTKGPSVFPLAPSSKSTSGGTAALGCLVEDYFPEPVTVSWNSGALTSGVHTFPAVLQSSGLYSLSSVVTVPSSSLGTQTYICNVNHKPSNTKVDEKVEPKSCDKTHTCPPCPAPEAAGGPSVFLFPPKPKDTLMISRTPEVTCVVVDVSHEDPEVKFNWYVDGVEVHNAKTKPREEQYNSTYRVVSVLTVLHQDWLNGKEYKCKVSNKALGAPIEKTISKAKGQPREPQVCTLPPSRDELTKNQVSLSCAVKGFYPSDIAVEWESNGQPENNYKTTPPVLDSDGSFFLVSKLTVDKSRWQQGNVFSCSVMHEALHNHYTQKSLSLSPGK
# light 2: DIQMTQSPSSLSASVGDRVTITCKASQNVATHVGWYQQKPGKAPKRLIYSASYRYSGVPSRFSGSGSGTEFTLTISNLQPEDFATYYCQQYNRYPYTFGQGTKLEIKRTVAAPSVFIFPPSDRKLKSGTASVVCLLNNFYPREAKVQWKVDNALQSGNSQESVTEQDSKDSTYSLSSTLTLSKADYEKHKVYACEVTHQGLSSPVTKSFNRGEC
# Target: T1, human GPRC5D (human, UniProt Q9NZD1 1-345)
# Assay: cell-based or functional assay
# T1 sequence (Q9NZD1 whole entry): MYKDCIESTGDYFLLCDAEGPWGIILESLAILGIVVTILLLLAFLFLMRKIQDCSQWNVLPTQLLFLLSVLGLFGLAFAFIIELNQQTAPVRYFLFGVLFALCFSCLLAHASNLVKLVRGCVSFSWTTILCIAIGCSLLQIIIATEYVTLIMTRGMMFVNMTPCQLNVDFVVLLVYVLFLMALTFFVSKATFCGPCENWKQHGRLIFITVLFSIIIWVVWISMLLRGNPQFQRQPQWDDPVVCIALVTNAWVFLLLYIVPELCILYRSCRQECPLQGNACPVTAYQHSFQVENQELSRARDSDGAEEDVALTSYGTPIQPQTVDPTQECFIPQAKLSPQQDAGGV
row,Binder,"CAR-J2 EC50 (PGLALA-CAR-J activation, L363 target cells)"
1,B1,3.9 ng/mL
2,B2,42.4 ng/mL
3,B3,59.4 ng/mL
4,B4,16.1 ng/mL
5,B5,61.3 ng/mL
6,B6,25 ng/mL
7,B7,37.8 ng/mL
8,B8,3.5 ng/mL
9,B9,6.3 ng/mL
10,B10,79.9 ng/mL
11,B11,456 ng/mL
12,B12,3.7 ng/mL
13,B13,4.6 ng/mL
14,B14,5.6 ng/mL
15,B15,76.9 ng/mL
16,B16,3.6 ng/mL
17,B17,6.3 ng/mL
18,B18,5.5 ng/mL
19,B19,3.3 ng/mL

# Target: T1, human GPRC5D
# Assay: cell-based or functional assay
# Remark: another data set of the same source
Binder,"EC50 of in vitro killing, AMO-1 cells","EC50 of in vitro killing, EJM cells","EC50 of in vitro killing, L363 cells","EC50 of in vitro killing, MOLP-2 cells","EC50 of in vitro killing, NCI-H929 cells","EC50 of in vitro killing, OPM-2 cells","EC50 of in vitro killing, RPMI cells"
B20,0.109 nM,0.06 nM,0.058 nM,0.124 nM,0.058 nM,0.171 nM,0.193 nM
